Common to all, as to assay: Ki table, method not stated
One assay deals with BCL-XL (UniProt Q07817 1-209).
A further assay deals with T1, MCL-1 (UniProt Q07820 172-327, limits assumed).
T1 construct: also called Myeloid cell leukemia 1

Another assay concerns the target BCL-2 (UniProt P10415 1-217, limits assumed).

Positions of bridges follow the written chain, without caps; N, C: chain ends. Non-standard residues stand in square brackets, D forms with d. Gly(1-adamantyl) = N[C@H](C(=O)O)C12CC3CC(CC(C3)C1)C2; Phe(4-CF3) = N[C@@H](Cc1ccc(C(F)(F)F)cc1)C(=O)O; Phe(4-tBu) = CC(C)(C)c1ccc(C[C@H](N)C(=O)O)cc1; Bip = N[C@@H](Cc1ccc(-c2ccccc2)cc1)C(=O)O; Igl = N[C@H](C(=O)O)C1Cc2ccccc2C1; R8 = C=CCCCCCC[C@@](C)(N)C(=O)O; Cha = N[C@@H](CC1CCCCC1)C(=O)O; hAdm = homo-adamantyl glycine; S5 = C=CCCC[C@](C)(N)C(=O)O

Usually Ki stands for a measure of affinity in units of concentration, obtained from inhibition or displacement. A low value points to tighter binding.

Chain of BCL-XL (Q07817 1-209): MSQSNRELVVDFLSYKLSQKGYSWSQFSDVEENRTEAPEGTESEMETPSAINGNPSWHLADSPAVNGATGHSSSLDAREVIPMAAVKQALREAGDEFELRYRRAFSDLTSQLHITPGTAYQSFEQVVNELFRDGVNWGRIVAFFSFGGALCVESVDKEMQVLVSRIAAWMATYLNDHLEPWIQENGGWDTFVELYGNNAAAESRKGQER
Chain of BCL-2 (P10415 1-217 limits assumed): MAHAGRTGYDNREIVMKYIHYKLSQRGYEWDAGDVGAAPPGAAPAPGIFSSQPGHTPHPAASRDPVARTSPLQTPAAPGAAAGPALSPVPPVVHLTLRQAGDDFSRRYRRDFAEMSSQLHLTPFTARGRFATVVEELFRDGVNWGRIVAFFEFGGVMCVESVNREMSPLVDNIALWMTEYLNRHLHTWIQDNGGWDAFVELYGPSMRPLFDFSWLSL
T1 sequence (Q07820 172-327 limits assumed): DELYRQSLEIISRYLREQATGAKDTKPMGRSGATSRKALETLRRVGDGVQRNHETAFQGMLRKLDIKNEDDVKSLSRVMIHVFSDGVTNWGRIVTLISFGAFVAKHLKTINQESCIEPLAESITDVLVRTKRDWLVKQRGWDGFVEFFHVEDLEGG

B1: SEQ ID NO: 1686 (peptide)
peptide: Ac-IW[Bip]AQALR[R8]IGDAFN[S5]YYA-NH2
modifications: staple 9-16
SMILES: CC[C@H](C)[C@H](NC(C)=O)C(=O)N[C@@H](Cc1c[nH]c2ccccc12)C(=O)N[C@@H](Cc1ccc(-c2ccccc2)cc1)C(=O)N[C@@H](C)C(=O)N[C@@H](CCC(N)=O)C(=O)N[C@@H](C)C(=O)N[C@@H](CC(C)C)C(=O)N[C@@H](CCCNC(=N)N)C(=O)N[C@]1(C)CCCCCCC=CCCC[C@@](C)(C(=O)N[C@@H](Cc2ccc(O)cc2)C(=O)N[C@@H](Cc2ccc(O)cc2)C(=O)N[C@@H](C)C(N)=O)NC(=O)[C@H](CC(N)=O)NC(=O)[C@H](Cc2ccccc2)NC(=O)[C@H](C)NC(=O)[C@H](CC(=O)O)NC(=O)CNC(=O)[C@H]([C@@H](C)CC)NC1=O
notes: also called Ac-IWBipAQALR$r8IGDAFN$YYA-NH2
Regarding B1, the results for the inhibitory constant (Ki) with BCL-XL and with MCL-1 were 3 nM and 11 nM, respectively.

B2: SEQ ID NO: 1628 (peptide)
peptide: IWIAQALRAIGDEFNAYYARR
modifications: not fully specified; Ac- at N-terminus; -NH2 at C-terminus; $r8 at 9 and $ at 16 joined by all-carbon crosslinker
B2: the results for the Ki with BCL-XL, in the assay with BCL-2 and with MCL-1 were 3.9 nM, 12.9 nM and 10.6 nM, respectively.

B3: SEQ ID NO: 1633 (peptide)
peptide: IWIAQALRAIGDAFNAYYA
modifications: not fully specified; Ac- at N-terminus; -NH2 at C-terminus; $r8 at 9 and $ at 16 joined by all-carbon crosslinker
On to B3, for which the values for the Ki with BCL-XL, in the assay with BCL-2 and with MCL-1 were 22.4 nM, 84.8 nM and 8.4 nM, respectively.

B4: SEQ ID NO: 1693 (peptide)
peptide: Ac-IWIAQA[Igl]R[R8]IGDAFN[S5]YYA-NH2
modifications: staple 9-16
SMILES: CC[C@H](C)[C@H](NC(C)=O)C(=O)N[C@@H](Cc1c[nH]c2ccccc12)C(=O)N[C@H](C(=O)N[C@@H](C)C(=O)N[C@@H](CCC(N)=O)C(=O)N[C@@H](C)C(=O)N[C@H](C(=O)N[C@@H](CCCNC(=N)N)C(=O)N[C@]1(C)CCCCCCC=CCCC[C@@](C)(C(=O)N[C@@H](Cc2ccc(O)cc2)C(=O)N[C@@H](Cc2ccc(O)cc2)C(=O)N[C@@H](C)C(N)=O)NC(=O)[C@H](CC(N)=O)NC(=O)[C@H](Cc2ccccc2)NC(=O)[C@H](C)NC(=O)[C@H](CC(=O)O)NC(=O)CNC(=O)[C@H]([C@@H](C)CC)NC1=O)C1Cc2ccccc2C1)[C@@H](C)CC
notes: also called Ac-IWIAQAIglR$r8IGDAFN$YYA-NH2
Consider B4, for which the Ki with BCL-XL came to 147 nM; in the assay with MCL-1, 47.7 nM.

B5: SEQ ID NO: 1689 (peptide)
peptide: Ac-IWIAQA[Gly(1-adamantyl)]R[R8]IGDAFN[S5]YYA-NH2
modifications: staple 9-16
SMILES: CC[C@H](C)[C@H](NC(C)=O)C(=O)N[C@@H](Cc1c[nH]c2ccccc12)C(=O)N[C@H](C(=O)N[C@@H](C)C(=O)N[C@@H](CCC(N)=O)C(=O)N[C@@H](C)C(=O)N[C@H](C(=O)N[C@@H](CCCNC(=N)N)C(=O)N[C@]1(C)CCCCCCC=CCCC[C@@](C)(C(=O)N[C@@H](Cc2ccc(O)cc2)C(=O)N[C@@H](Cc2ccc(O)cc2)C(=O)N[C@@H](C)C(N)=O)NC(=O)[C@H](CC(N)=O)NC(=O)[C@H](Cc2ccccc2)NC(=O)[C@H](C)NC(=O)[C@H](CC(=O)O)NC(=O)CNC(=O)[C@H]([C@@H](C)CC)NC1=O)C12CC3CC(CC(C3)C1)C2)[C@@H](C)CC
notes: also called Ac-IWIAQAAdmR$r8IGDAFN$YYA-NH2
For B5, the Ki was 110 nM in the assay with BCL-XL and 40.2 nM with MCL-1.

B6: SEQ ID NO: 1641 (peptide)
peptide: Ac-I[S5]IAQ[S5]LR[R8]IGDEFN[S5]YYA-NH2
modifications: staple 9-16, 2-6
SMILES: CC[C@H](C)[C@H](NC(C)=O)C(=O)N[C@@]1(C)CCCC=CCCC[C@@](C)(C(=O)N[C@@H](CC(C)C)C(=O)N[C@@H](CCCNC(=N)N)C(=O)N[C@]2(C)CCCCCCC=CCCC[C@@](C)(C(=O)N[C@@H](Cc3ccc(O)cc3)C(=O)N[C@@H](Cc3ccc(O)cc3)C(=O)N[C@@H](C)C(N)=O)NC(=O)[C@H](CC(N)=O)NC(=O)[C@H](Cc3ccccc3)NC(=O)[C@H](CCC(=O)O)NC(=O)[C@H](CC(=O)O)NC(=O)CNC(=O)[C@H]([C@@H](C)CC)NC2=O)NC(=O)[C@H](CCC(N)=O)NC(=O)[C@H](C)NC(=O)[C@H]([C@@H](C)CC)NC1=O
notes: also called Ac-I$IAQ$LR$r8IGDEFN$YYA-NH2
As to B6, the Ki with BCL-XL was 11.6 nM; with BCL-2 it was 8.7 nM; with MCL-1, 19.5 nM.

B7: SEQ ID NO: 1684 (peptide)
peptide: Ac-IW[Phe(4-tBu)]AQALR[R8]IGDAFN[S5]YYA-NH2
modifications: staple 9-16
SMILES: CC[C@H](C)[C@H](NC(C)=O)C(=O)N[C@@H](Cc1c[nH]c2ccccc12)C(=O)N[C@@H](Cc1ccc(C(C)(C)C)cc1)C(=O)N[C@@H](C)C(=O)N[C@@H](CCC(N)=O)C(=O)N[C@@H](C)C(=O)N[C@@H](CC(C)C)C(=O)N[C@@H](CCCNC(=N)N)C(=O)N[C@]1(C)CCCCCCC=CCCC[C@@](C)(C(=O)N[C@@H](Cc2ccc(O)cc2)C(=O)N[C@@H](Cc2ccc(O)cc2)C(=O)N[C@@H](C)C(N)=O)NC(=O)[C@H](CC(N)=O)NC(=O)[C@H](Cc2ccccc2)NC(=O)[C@H](C)NC(=O)[C@H](CC(=O)O)NC(=O)CNC(=O)[C@H]([C@@H](C)CC)NC1=O
notes: also called Ac-IWF4tBuAQALR$r8IGDAFN$YYA-NH2
B7: the Ki in the assay with BCL-XL amounted to 16.9 nM; with MCL-1, 151 nM.

B8: SEQ ID NO: 1691 (peptide)
peptide: Ac-IWIAQA[hAdm]R[R8]IGDAFN[S5]YYA-NH2
modifications: staple 9-16
notes: also called Ac-IWIAQAhAdmR$r8IGDAFN$YYA-NH2
With B8, the figures for the Ki in the assay with BCL-2 and with MCL-1 were 240 nM and 16.6 nM, respectively.

B9: SEQ ID NO: 1694 (peptide)
peptide: Ac-IWIAQA[Phe(4-CF3)]R[R8]IGDAFN[S5]YYA-NH2
modifications: staple 9-16
SMILES: CC[C@H](C)[C@H](NC(C)=O)C(=O)N[C@@H](Cc1c[nH]c2ccccc12)C(=O)N[C@H](C(=O)N[C@@H](C)C(=O)N[C@@H](CCC(N)=O)C(=O)N[C@@H](C)C(=O)N[C@@H](Cc1ccc(C(F)(F)F)cc1)C(=O)N[C@@H](CCCNC(=N)N)C(=O)N[C@]1(C)CCCCCCC=CCCC[C@@](C)(C(=O)N[C@@H](Cc2ccc(O)cc2)C(=O)N[C@@H](Cc2ccc(O)cc2)C(=O)N[C@@H](C)C(N)=O)NC(=O)[C@H](CC(N)=O)NC(=O)[C@H](Cc2ccccc2)NC(=O)[C@H](C)NC(=O)[C@H](CC(=O)O)NC(=O)CNC(=O)[C@H]([C@@H](C)CC)NC1=O)[C@@H](C)CC
notes: also called Ac-IWIAQAF4CF3R$r8IGDAFN$YYA-NH2
Regarding B9, the Ki in the assay with BCL-XL turned out to be 10.8 nM; with MCL-1, 188 nM.

B10: SEQ ID NO: 1687 (peptide)
peptide: Ac-IWIAQA[Cha]R[R8]IGDAFN[S5]YYA-NH2
modifications: staple 9-16
SMILES: CC[C@H](C)[C@H](NC(C)=O)C(=O)N[C@@H](Cc1c[nH]c2ccccc12)C(=O)N[C@H](C(=O)N[C@@H](C)C(=O)N[C@@H](CCC(N)=O)C(=O)N[C@@H](C)C(=O)N[C@@H](CC1CCCCC1)C(=O)N[C@@H](CCCNC(=N)N)C(=O)N[C@]1(C)CCCCCCC=CCCC[C@@](C)(C(=O)N[C@@H](Cc2ccc(O)cc2)C(=O)N[C@@H](Cc2ccc(O)cc2)C(=O)N[C@@H](C)C(N)=O)NC(=O)[C@H](CC(N)=O)NC(=O)[C@H](Cc2ccccc2)NC(=O)[C@H](C)NC(=O)[C@H](CC(=O)O)NC(=O)CNC(=O)[C@H]([C@@H](C)CC)NC1=O)[C@@H](C)CC
notes: also called Ac-IWIAQAChaR$r8IGDAFN$YYA-NH2
For the molecule B10, the Ki amounted to 81.1 nM in the assay with BCL-XL and 4.2 nM in the assay with MCL-1.

These data come from patent US20180273587A1 (AILERON THERAPEUTICS, published 2018).
